In CN108003238A (VELOX PHARMACEUTICALS INC, dated 2018):

How the values were obtained:
[1] = biological target: 小鼠CTLA4/CD152蛋白(His标签) (mouse) (UniProt P09793); test: ELISA, mouse CTLA-4 coated, anti-human Fc HRP detection
[2] = biological target: T1, Human CTLA-4/CD152 Protein (His Tag), Biotinylated (human, UniProt P16410 36-161, biotinylated (site not stated)); test: multi-cycle kinetics on OCTET, antibody captured on Protein A, CTLA-4 diluted 2-fold from 33 nM over 7 points
T1 construct: Bought recombinant protein; also called 人CTLA-4蛋白; 抗原; not shown: His tag
T1 sequence (looked up): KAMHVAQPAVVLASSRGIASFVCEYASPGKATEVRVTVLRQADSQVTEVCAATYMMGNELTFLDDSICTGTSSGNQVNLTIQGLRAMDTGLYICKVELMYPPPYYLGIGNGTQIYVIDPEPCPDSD

Sequence of UniProt P09793 (P09793 36-161 limits assumed): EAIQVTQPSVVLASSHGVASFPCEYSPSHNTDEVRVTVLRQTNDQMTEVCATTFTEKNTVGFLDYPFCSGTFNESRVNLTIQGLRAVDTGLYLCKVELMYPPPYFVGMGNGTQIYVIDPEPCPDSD

antibody concentration at which binding is still not saturated [1]: > 8 ng/µL
Kd [2]: 1 pM
B1: IgG1-6E2-CTLA-4 (antibody, V domains shown)
VH: QVQLVQSGAEVKKPGSSVKVSCKASGGTFSSYGISWVRQAPGQGLEWMGGIIPIFETSESAQKFQGRVTFTADKSSSTGYMELSSLRSEDTAIYYCARDPLHRSSSGTYYHYFMDVWGQGTMVTVSS
VL: QAVLTQPSSLSASPGASVSLTCTLRSGINVGAYRIYWYQQKPGSPPQFLLRYKSDSDKEQGRGVPSRFSGSKDASANAGILLISGLQSEDEADYYCMIWHNNAVFFGGGTKLTVLG
notes: also called 抗CTLA-4全人源单克隆抗体
